According to the domain aggregation screens of Martell et al. (2025):

Experiment: soluble fraction after stress (log2 fold change); higher = more stays soluble; pooled small domains, quantitative proteomics
Conditions: stress: pH 4
Outline: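 Aggregation propensity here comes from the fold change in the soluble amount of each small protein domain after acid stress, measured in pooled custom libraries by high-throughput quantitative proteomics. The acid stress was pH 4. On the log2 scale, higher values mean more of the domain stayed soluble.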

First: HMDSGFMRTTQSYTVARLAEIFRLSGEDYLAVLREYDGWYQDLTSTKDLIRKGSDVPVPEGV
Second: HMDSGLEQAKTAALENAELETSQVTFIKAELDYDDGKKVYEIEFVTSAMKYEYQVKADDFSILEMSKETIE
The “soluble fraction (log2)” value of the first is lower: -1.02 for the first, -0.129 for the second.

“HMDSHSAESVRQRIKDMIAAEASKSILSDDTIVENLKSEGIEIARRTVAKYRESLNIPSSIQRRRIARSEA” and “HMDSILMPGVVNKELREALAILKNEGIGWADPEYASSTVTRNYVISTDPVEGIELAPGQKVRLVVSLGPKP” are within 0.2 log units of each other in “soluble fraction (log2)” value: 0.0843 for the first, 0.153 for the second.

Going from “HMDSIQMKNNSILYYGNTAGYLDAKRNTAVVDPMFRTDEMESYLSEQKGLSVEWASGTYDRLT” to “HMDSLEIEEPITVKSLSAASGLKISDIIRKLMQEGIMATANQVIDREQAEAVLIDYNVDLVVKR”, the “soluble fraction (log2)” value rises from -0.921 to 0.0392.

First: HMDSLNWVEKIINTLPEQQRLIIQMRDIEQYEFAEIAKILEMNETAIRVALSRARKTIREFMIKTH
Second: HMDSLSLTELRIDSASPWIGNRISDFSPYAGELVIMIIRGEETIVPNGDTIILDKDLLVIYSS
The “soluble fraction (log2)” value of the first is higher: no less than 0.43 for the first, -1.39 for the second.

First: HMDSNFNYELVGFRLDDMGLNSSVIVKRNNQEFVIQKGDLLENKYLLNSVTKKNINFSYLGKNYQI
Second: HMDSNPLSEREQEVLQLVAKGASNQTIAEQLFLSNGTIRNYMTAIFNKLNANNRTDAVRIARENGW
The “soluble fraction (log2)” value of the first is lower: -0.731 for the first, -0.24 for the second.

Going from “HMDSPVEEWANRGLAYDPSLVTETMAKLYAKQGQIGLARKAFKRLALIYPEKSVYFAFQLKKLSNN” to “HMDSPVLTAEIKALIDKELEQNAVKLATGLKKQRKRATDIHDALIRQGHEVSYRTVVRYIRNKTAQTS”, the “soluble fraction (log2)” value rises from 0.0712 to no less than 0.43.

“HMDSTSEILKVIQNIVKKEDPYHPLSDDKISNLLNDLDYQISRRTVAKYRDILTIPSSSKRRKL” and “HMDSVEMFSPILGMNANMDLDTLTQTRDKLLEKYKDDEQLIGLVNKTYDYFNEILLKQFLIEELEKNE” are within 0.2 log units of each other in “soluble fraction (log2)” value: -0.0776 for the first, -0.207 for the second.

Compared with “HMDSVFGVVTSSDGVKLRKEASTISKVLTVLPYGTEVDVDRIGSEWIRIVTDGGQKGYVSADYLAVREGER”, “HMDSVPEEQLRQLALDKAKEVKRWGQPVELAKMNAHDRRIIHINLQDDPEIETRSEGEGALKSVIISLKK” is higher in “soluble fraction (log2)” value: -0.1 for the first, 0.135 for the second.

Going from “HMDSYADVLSDYRGKYKTNTISGLKGLRDKIREDMLAAADSLDFEKAALLRDEMNDLNKKIELKEKT” to “HMDTERLYAYAWQTHLKQFGLNISEEEIRQFVGVDDRIVHSFYAKTVPLDDFENTMFSLGEIIQQSL”, the “soluble fraction (log2)” value falls from -0.486 to -2.08.

First: HMDTFNVIARQEIDGILYEYKIMTVEDYKNQSPENLAVIYENIKAVMEQYDLSEDDADAILVDLLG
Second: HMDTIRINSGSTVKEVAEYLGIPVPEVIKKLMSMGELATLTKTLSDDHIEVLAEEFEKKIKIVHVGEEAD
The “soluble fraction (log2)” value of the first is lower: -1.51 for the first, -0.61 for the second.

Going from “HMDTITDSYTLEKGKLRAKVMEYELPESKKKEYSATFEYRGVYYHMIGIIEKADFEEILKNLHFP” to “HMDTIVVAARSIQARQTLTESDLRVEEQEIGAASDKYYTDIAEAVGLVSSRRLSPGQPILRTM”, the “soluble fraction (log2)” value rises from -0.53 to -0.273.

First: HMDTLKDFISGVSIVFENKYSVGDNVTIGDFRGDVIELGMKTTKIRAYTGEVLIIPNHLVEKVINH
Second: HMDTLRARQEAAYRFLSAIAGDWRNYEEANRALFAGDAARFQDLTESWPADVRDHARHLASAAFSS
The “soluble fraction (log2)” value of the first is higher: -0.665 for the first, -1.15 for the second.

Going from “HMDTNAIIGLRIKNLRTEKKYTLKYLSENTGLSIGFLSQLERGMTSIAIDSLDKISKVLDVELSSFFT” to “HMDTNELIDRYVNEVGQHLPRKTRADIEMELRSLLLDTLEEQSGGEPTPKMAAEVLREFGHPEEIAAQYH”, the “soluble fraction (log2)” value falls from -0.14 to -0.755.

First: HMDTRKKLEQIFKLFDKTGTGMVNIDEFKSVLKLFMEEIDEKFGNYFIAYFDENGDGKIEFEEFADVVL
Second: HMDTSAHEVLSAIRSIIEDEDKRHPLSDEAITSRLSQQGYDIARRTVAKYRERLGLPVARLRRE
The “soluble fraction (log2)” value of the first is lower: -0.462 for the first, 0.376 for the second.

Going from “HMDVALEALDESDGAVRLQFSGALQTYLNDSTTAASLEAISKTFRAFYEAAGRPVDTLEVYAAGEPVT” to “HMDVDKQLDQLLAAMIPDKSLRQTIKTKAFNELVDNELADKDISSWTKQTMDVFMTRAEDMFGAM”, the “soluble fraction (log2)” value falls from -0.42 to -1.43.

“HMDVEMLIDKYQLNDSEAEVLRFMKKNRQSLKTIGIRDVAKATYVSTATIINMAKKIGYSGYSELVFALGN” and “HMDVNAQAGYDKLQSNQLDGARHDYEQALKTDPNNVDTLLALAAIAQRQGRSADADGYRQRAIDAD” are within 0.2 log units of each other in “soluble fraction (log2)” value: -0.319 for the first, -0.245 for the second.

First: HMDVNHVIIDHKGNSIQAIIDSIDLDNVYYQSKIKKESEVIDIDKVYFIFNDFDRVYHYDWSYYENL
Second: HMDVNLSIRSGETIGIIGSTGSAKSTLVQLIPRLYDTTEGEVLVGGVNVKNYDLEALRNSVAMVLQKN
The “soluble fraction (log2)” value of the first is lower: -0.468 for the first, -0.155 for the second.

First: HMDVPNLVGEEIKDVRRTLRHFQLEVIGEGSKIVSQVPKHGQRLPENTTIRVYLN
Second: HMDVPNLVGKTLEEAENELKKLNIRYNVTERADEAPKDTVIEQSPKPYEAMEPGTVVNLVISSGPA
The “soluble fraction (log2)” value of the first is higher: -0.0434 for the first, -0.912 for the second.

“HMDVQPHIYLRKLDQFWPADLHSLILYTLDGRRLWSADSGNIPALPHRASSLVILEATWDNGQRTRRKQFL” and “HMDVRKSISDLKALGLSDAAVTVYGTIGNKPVHIDKIVSELGIPVFKVLTALTQLEMKGLVTAMQGRMYVL” are within 0.2 log units of each other in “soluble fraction (log2)” value: -0.116 for the first, -0.168 for the second.

“HMDVSASEVGLTGRQTDVLSLMVKGRSNRDIAELLGLSEGTVKIHITAIFKALGVASRTQALVAAARLGLK” and “HMDVSLVEQTQRDILEYISKNNSNAQLPKEQEFVGLLGVSRVVVREALSRLRALGIIETKRKKGTVVVVPE” are within 0.2 log units of each other in “soluble fraction (log2)” value: -0.212 for the first, -0.31 for the second.

“HMDWVAYGAELRRRRLLAGWSVAELSRRTNLSTSIIYQVEQARTRLRPSQLTLAKLAAALGMP” and “HMDYAQAQRQAESAIALRPDVERLRLLLIYALQKQGKLREAEQAAADAIKSGLDTPALRQARANLRP” are within 0.2 log units of each other in “soluble fraction (log2)” value: -0.0217 for the first, -0.205 for the second.

“HMDYGSISFINWSIEVLSVIKTRLDRGDKIIDEVSGEKYTASSFEKFVRKNFSSYIFSQVYAEDHKK” and “HMDYHTIQTGDKGDEVLRLQQALAEYGYYEGDLDGRFGQQTRRAVERFQYSHGLTADGIAGRNTLSVLYD” are within 0.2 log units of each other in “soluble fraction (log2)” value: -0.016 for the first, -0.051 for the second.

Going from “HMDYIITHYPDNKRFETQVDGVVAFVQYRLSGDKLDIIHTIVPPAIGGRGIAAALVKYAYDYAIENGMK” to “HMDYKSKLQELVQTEKRTVEYKLVDESGPAHNKSFTFEVVISGIKYGSGTGASKKIAEQNAAKEALEKLA”, the “soluble fraction (log2)” value rises from -0.666 to 0.144.

Compared with “HMDYKSTLQELVQTVKKSVTYEVIDEEGPSHNKTFTSIVKIDGIVMGKGTAGSKKASEQEAARDALSKR”, “HMDYLYHNGKEIDQGSIMYKMEDYSDGIFELQSAKYADGTELDEKELEELESTQELIDWVMIDFVS” is lower in “soluble fraction (log2)” value: -0.0966 for the first, -1.99 for the second.

“HMDYNSYGLTERELELVDYVLKGYSRKEMAEASGLKVNTIGSYMKKIYRKLNIHNRTELKERFI” and “HMDYNYLVFVTNTGPRSIAVEDLEMTVSDGKLVVSSGADGETFDLSTLTKMYFSDAAVVSINDV” are within 0.2 log units of each other in “soluble fraction (log2)” value: -1.31 for the first, -1.14 for the second.

Going from “HMDYQYILVDVKDRIATVTINRPEYSNAFARESYYEIADAMNTLGARDDVGVIVITGAGKHFSAGGDIKRF” to “HMDYYKILGLSTSATLDQIKKAFRQLAIEFHPDKNPNNPTAEDKFQRISEAYAVLSNPEKRAEYDRSY”, the “soluble fraction (log2)” value rises from -0.652 to -0.17.

Going from “HMEAAETAVVTGTIVNIRSGPTLDFEAFAQVKQGDRLPVLDKFYNWYYVKLPSGVNGWISGQLVRIEQ” to “HMEAELNSLVKTYENMKPKAAAQVFEELDMDVLLDVVERMKEKKLAPILAQVTPTRAKEITYELTQRR”, the “soluble fraction (log2)” value rises from -0.673 to -0.0962.

Compared with “HMEAFDYLGRRTRDLLERQGWTTVPLVRDAYLAVPGGERLLQVPGFGRKSLREVRRWLWLQIGDPRFE”, “HMEAIYKKNKNLIHTVIRDNFPFLIDTADYEDAFQEGSIGLIRAIDRFDDGLEYKFSSYAYTAIRNQIA” is lower in “soluble fraction (log2)” value: 0.114 for the first, -0.165 for the second.

“HMEALGLSPRQVDVLRLLVEGRSNKMIMRELELSESTVKTHLQAIFRRLGVSSRTQAVVAAARLGL” and “HMEALSAREIEILQALETGASNRELAKMLFISEATVKTHLVHIYQKLGVGTRTAAITEARERRV” are within 0.2 log units of each other in “soluble fraction (log2)” value: -0.418 for the first, -0.237 for the second.

First: HMEANAYFDAYPDVAAEWARLSGSDEGKATLSAIGVTTPQQFAQYHYTTFGSKENRNAPVGYTP
Second: HMEANPLTDREKEVLELVADGKNTKEIAQELSIKSGTVRNYISMILEKLEVKNRIEAITRSKEKGWF
The “soluble fraction (log2)” value of the first is lower: -0.47 for the first, -0.025 for the second.

Compared with “HMEAPMPIFWRPQFRIGHDDIDADHRYLILLINTVELVLRFPDDPRNVELALTELRRYAEDHFEREER”, “HMEAQAHYDAIYKAHPNADSIAQSAEFKAWVDAQPSVVRNAYWQLFDPKEGGTAEQIVEVFDAFVKSS” is lower in “soluble fraction (log2)” value: 0.0123 for the first, -1.83 for the second.

Compared with “HMEDDIRSSIRTLDQFISKNQITLSKDVKNYILQLLSNDRMVTINELEKIKIYYDSNENIDLDTVKILLN”, “HMEDEEILNEIRHTEQYVYYFGNYIMEHHVSRGLSKEKVIASLARELQIEIADIREDFDGMIEQIKTNILN” is higher in “soluble fraction (log2)” value: -1.4 for the first, -0.416 for the second.

“HMEDESSIERYLGSGAIKGIGPSLAARIVKKFGKDTFRIIEQEPERLAEIKGISERKAMEISTLMEEK” and “HMEDGRLPPPGTVLRREYKGRAVFVRVLPKGFEFEGEVYRSLSAIAAKVTGSHWNGFRFFGLHE” are within 0.2 log units of each other in “soluble fraction (log2)” value: 0.0126 for the first, 0.199 for the second.

Going from “HMEDHMVVFGKGGRITRLPDKATVLEYLDAANFFASRSSVVKVNGKLASLDQTLRDGDSIEIVD” to “HMEDINAVLAENLRRLRESRRLSLDAVARLTGVSKSMLGQIERGEVNPTVSTMWKIAGGLKVNFTALFRRE”, the “soluble fraction (log2)” value rises from -0.473 to no less than 0.43.

For “HMEDIQPSVIFQNNMIDGFKKFGVSFLQNRRNVNVNTLNGLASAGTYPKWQQLLVNKISYIDMLLSTGG”, the “soluble fraction (log2)” value was -0.137.
